Biological target: GA733 antigen (37 kD protein expressed on colorectal carcinoma cells) (UniProt P16422)
Test: cell-based or functional assay

Chain of UniProt P16422 (P16422 24-314): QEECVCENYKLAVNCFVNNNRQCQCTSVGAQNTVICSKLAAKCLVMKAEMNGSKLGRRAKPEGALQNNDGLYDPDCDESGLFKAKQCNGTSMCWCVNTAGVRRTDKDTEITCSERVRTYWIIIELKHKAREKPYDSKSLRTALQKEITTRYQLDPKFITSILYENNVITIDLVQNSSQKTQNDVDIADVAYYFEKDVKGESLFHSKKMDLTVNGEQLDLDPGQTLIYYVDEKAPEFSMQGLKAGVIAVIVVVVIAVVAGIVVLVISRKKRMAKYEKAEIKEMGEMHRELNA

- % Specific Lysis of CY13, effector:target 3.3:1: 10.3%
- % Specific Lysis of CY13, effector:target 10:1: 22.2%
- % Specific Lysis of CY13, effector:target 30:1: 38.7%
- % Specific Lysis of CY13, effector:target 90:1: 52.2%
- GM-CSF production by PBL (stimulator CY13) (pg/ml/5 × 10^5 PBL/24 hours): 1280
- GM-CSF production by PBL (stimulator GREM) (pg/ml/5 × 10^5 PBL/24 hours): 2980
Substance: chimeric receptor GA733-γ (scFv of MAb GA733 joined to the γ chain of the Fc receptor)
